In patent US11732048B2, “Anti-axl antagonistic antibodies” (BERGEN TEKNOLOGIOVERFØRING AS, priority 2016, dated 2023):

Experiments:
Mer (rhMer-Fc chimera) = biological target: T1, Mer (rhMer-Fc chimera) (Homo sapiens, UniProt Q12866); test: Biacore binding analysis on immobilised human Mer; conditions: 10 μg/mL in HBS-EP, 25° C.
T1 construct: Soluble recombinant antigens corresponding to the extracellular domains of members of the human TAM receptor family; Fc; purchased R&D Systems 891-MR
T1 sequence (Q12866 21-505 limits assumed): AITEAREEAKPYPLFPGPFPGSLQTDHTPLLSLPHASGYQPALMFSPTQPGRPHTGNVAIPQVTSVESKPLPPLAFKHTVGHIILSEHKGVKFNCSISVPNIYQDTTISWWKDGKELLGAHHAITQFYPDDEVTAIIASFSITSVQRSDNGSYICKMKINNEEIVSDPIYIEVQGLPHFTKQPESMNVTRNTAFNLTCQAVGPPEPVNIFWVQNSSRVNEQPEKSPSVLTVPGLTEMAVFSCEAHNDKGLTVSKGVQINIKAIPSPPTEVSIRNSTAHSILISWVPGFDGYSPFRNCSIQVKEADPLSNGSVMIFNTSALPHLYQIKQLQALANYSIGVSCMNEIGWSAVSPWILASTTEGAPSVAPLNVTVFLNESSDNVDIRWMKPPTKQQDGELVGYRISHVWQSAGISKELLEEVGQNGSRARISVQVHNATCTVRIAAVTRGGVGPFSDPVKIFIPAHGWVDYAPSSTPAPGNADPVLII
Description: (§1) All binding experiments were performed using Biacore 3000 instrument (GE Healthcare) at 25° C. Soluble recombinant antigens corresponding to the extracellular domains of members of the human TAM receptor family, Axl (rhAxl-Fc chimera; R&D Systems, Cat. no. 154-AL), Mer (rhMer-Fc chimera; R&D Systems, Cat. no. 891-MR) and Tyro3 (rhTyro3/Dtk-Fc chimera; R&D Systems, Cat. no. 859-DK) were immobilized on the surface of CM5 sensor chip using amine coupling at the surface density of 393.0, 303.6 and 364.0 resonance units (RU), respectively. The Biacore run was performed in an automatic mode using Binding analysis wizard. Samples containing MAb 10G5 at concentration 10 μg/mL in HBS-EP buffer (GE Healthcare) were injected over the surfaces with immobilized antigens at flow rate of 30 μL/min for 3 min (association) followed by 5 min dissociation.

[1] = biological target: T2, Tyro3 (rhTyro3/Dtk-Fc chimera) (Homo sapiens, UniProt Q06418); test: Biacore binding analysis on immobilised human Tyro3; conditions: 10 μg/mL in HBS-EP, 25° C.
T2 construct: Soluble recombinant antigens corresponding to the extracellular domains of members of the human TAM receptor family; Fc; purchased R&D Systems 859-DK
T2 sequence (Q06418 41-429 limits assumed): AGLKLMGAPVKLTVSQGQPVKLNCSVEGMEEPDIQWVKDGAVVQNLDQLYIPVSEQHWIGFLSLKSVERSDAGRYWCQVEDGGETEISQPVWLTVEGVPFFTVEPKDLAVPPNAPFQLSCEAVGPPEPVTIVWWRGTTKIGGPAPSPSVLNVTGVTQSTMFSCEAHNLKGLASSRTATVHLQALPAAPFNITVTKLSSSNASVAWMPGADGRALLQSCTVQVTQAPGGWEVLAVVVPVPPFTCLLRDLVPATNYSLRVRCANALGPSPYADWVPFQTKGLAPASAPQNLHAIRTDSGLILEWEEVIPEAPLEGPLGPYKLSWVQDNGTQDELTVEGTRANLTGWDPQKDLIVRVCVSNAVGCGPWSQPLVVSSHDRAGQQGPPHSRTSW
Description: as §1
The binding experiments were performed using Biacore 3000 instrument (GE Healthcare) at 25° C. The soluble recombinant antigens corresponding to human Axl (rhAxl-Fc chimera; R&D Systems, Cat. no. 154-AL), mouse Axl (rmAxl-Fc chimera; R&D Systems, R&D Systems; Cat. no. 854-AX) and human Tyro3 (rhTyro3/Dtk-Fc chimera; R&D Systems, Cat. no. 859-DK) were immobilized on the surface of CM5 sensor chip using amine coupling at the surface density of 1,308.0, 2,115.9 and 1,429.0 RU, respectively. The Biacore runs were performed in an automatic mode using Binding analysis wizard.
The sample containing MAb 10G5 or recombinant mouse (rm) Axl-ligand Gas6 (R&D Systems, Cat. no. 986-GS/CF) at concentration 10 μg/mL in HBS-EP buffer (GE Healthcare) was injected over the surfaces with immobilized antigens at flow rate of 30 μL/min for 3 min (association) followed by 5 min dissociation.

[2] = biological target: T3, Axl receptor protein in MBA-MD-231 cells (Homo sapiens, UniProt P30530); test: Western blot of Axl receptor protein after antibody treatment; assay type: cell-based; conditions: 100 μg/mL, 20 hrs, versus irrelevant IgG or MAb #3
T3 construct: The expression of Axl receptor protein in MBA-MD-231 cells treated with different antibodies was examined by Western blot analysis; endogenous in cells; host or cells: MDA-MB-231 (printed 'MBA-MD-231') human breast carcinoma cells
Description: The expression of Axl receptor protein in MBA-MD-231 cells treated with different antibodies was examined by Western blot analysis. The cells were seeded in a 6-well plate at density of 5×10^5 cells per well and cultured overnight before treatment initiation. The cells were treated for 20 hrs in the presence of isotype control (mouse IgG2b), anti-Axl antibodies (10G5 and MAb #3) at concentrations of 100 μg/mL or multikinase inhibitor Foretinib (targets Met, Ron, Axl, Tie-2, and VEGFR2) at a concentration of 0.5 μM followed by harvesting by centrifugation at 1,200 rpm for 5 min and washing with sterile PBS. The cells were collected by centrifugation and resuspended in NP40-lysis buffer followed by 30 min incubation on ice. The cell lysates were cleared by centrifugation (12,000 rpm, 4° C., 5 min) and the protein concentrations were determined using BCA protein assay. The cell lysate samples comprising 35 μg of total protein were denatured in presence of the reducing agent (Life Technologies) and loaded into the wells of NuPAGE 10% Bis-Tris polyacrylamide (PAA) gel, 1.0 mm×12 well (Invitrogen). The electrophoresis was performed using Bis-Tris SDS running buffer under the recommended conditions (Life Technologies) and the proteins were transfer on PVDF membrane, as described for 2 gels in a manual for XCell II™ Blot Module (Invitrogen) using the transfer buffer with 20% methanol. […]

B1: murine 10G5: mouse monoclonal anti-human Axl antibody from hybridoma WR-10G5-E5; VH SEQ ID NO: 28, VL SEQ ID NO: 29 (antibody, listed as Mus musculus, V domains shown)
VH: QVQLQQSGAELVRPGASVKLSCKASGYSFTDFYINWVRQRPGQGLEWIARIFPGGDNTYYNEKFKGKATLTAEESSSTAYIQLSSLTSEDSAVYFCARRGLYYAMDYWGQGISVTVSS
VL: DVLMTQTPLSLPVSLGDQASISCRSSQSLVHSNGIPYLHWYLQKPGQSPKLLIYRVSNRFSGVPDRFSGSGSGTDFTLKISRVEAEDLGVYFCSQGTHVPPTFGGGTKLEIK
modifications: (1)..(118) Mus musculus 10G5 VH domain; (1)..(112) Mus musculus 10G5 VL domain
For B1, the “Binding to recombinant human Mer” value (Mer (rhMer-Fc chimera)) was “no significant binding”, the “Binding to recombinant human Tyro3” value [1] was “no significant binding” and the “Axl receptor protein level” value [2] was “significant reduction in the amount of Axl receptor protein”.
